From US20260242493A1 come the findings set out here.

The target in assay [1] is recombinant human CD40L (BioLegend Cat. #591706) (human) (UniProt P29965). Description: ELISA on coated rhCD40L; lower limit of IC50. Background: In an ELISA, binding on a coated surface is turned into a signal by an enzyme label.
In assay [2] the target is recombinant human FcγRI (human) (UniProt P12314). Description: ELISA: test protein coated, recombinant human FcγRI titrated, anti-CD64 detection, A450.
Chain of recombinant human FcγRI (human) (P12314 16-288 limits assumed): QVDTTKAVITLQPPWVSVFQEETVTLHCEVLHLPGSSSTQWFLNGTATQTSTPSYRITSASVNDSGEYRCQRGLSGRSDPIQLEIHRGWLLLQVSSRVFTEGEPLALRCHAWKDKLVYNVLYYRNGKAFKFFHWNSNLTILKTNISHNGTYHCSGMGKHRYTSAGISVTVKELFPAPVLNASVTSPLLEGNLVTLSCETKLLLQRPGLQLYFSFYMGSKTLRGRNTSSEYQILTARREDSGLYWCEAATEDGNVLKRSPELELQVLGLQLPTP

Chain of recombinant human CD40L (BioLegend Cat. #591706) (human) (P29965 113-261 limits assumed, form in doubt): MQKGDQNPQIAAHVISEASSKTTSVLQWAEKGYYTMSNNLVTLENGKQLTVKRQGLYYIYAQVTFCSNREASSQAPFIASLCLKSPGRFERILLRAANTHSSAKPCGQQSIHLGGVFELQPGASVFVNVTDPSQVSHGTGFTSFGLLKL

On to “anti-CD40L antibody 5c8 (reference antibody)”, for which the LCL in assay [1] worked out at 0.04. Moreover, the EC50 (read off the curve) (in general, the concentration that produces a half-maximal response) in assay [2] stood at 0.2 µg/mL.
